BiFC fluorescence as percent of HOXA9/PBX1 BiFC data for one substance are collected here from PMC9818449.

Where only a bound is given, the exact number is not on record here.

This assay has as its target VN-HOXA9 (human) (UniProt P31269). The assay can be described thus: split reporter (BiFC, NanoBiT); individual BiFC in live HEK293T cells: plix-VN-HOXA9, plix-CC-ORF and plix-mCherry co-transfected, 18 h with doxycycline 100 ng/mL, confocal imaging; HOXA9/PBX1 as calibrator.
Chain of UniProt P31269 (P31269 whole entry): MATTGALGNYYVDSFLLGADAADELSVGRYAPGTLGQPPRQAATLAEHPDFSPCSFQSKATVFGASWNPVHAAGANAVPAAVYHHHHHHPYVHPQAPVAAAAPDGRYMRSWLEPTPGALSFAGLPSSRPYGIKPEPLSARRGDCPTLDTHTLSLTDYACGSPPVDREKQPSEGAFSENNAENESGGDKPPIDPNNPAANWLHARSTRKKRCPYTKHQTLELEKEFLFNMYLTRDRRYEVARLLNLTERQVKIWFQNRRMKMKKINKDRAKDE

As for “CC-C6orf201 (from UniProt B3KW47 1-115) (natural protein)”, the BiFC fluorescence as percent of HOXA9/PBX1 BiFC was less than 15%.
